The source of these data is publication PMC9122595.

The labels stand for the following.
B1: S4M (dsDNA)
DNA 1: TGGTGCCGAGGGTTTTTTTC
DNA 2: GAAAAAAACCCTCGGCACCA
B2: S2M (dsDNA)
DNA 1: GGGCACAGAGGGTTTAATCA
DNA 2: TGATTAAACCCTCTGTGCCC
B3: S5M (dsDNA)
DNA 1: GCTTTCTTCGGGCTTGAAAA
DNA 2: TTTTCAAGCCCGAAGAAAGC
B4: S3 (dsDNA)
DNA 1: CTTGTCTGCCATTGTATCTT
DNA 2: AAGATACAATGGCAGACAAG
B5: S1 (dsDNA)
DNA 1: ATGATAAGCCATGATCACAC
DNA 2: GTGTGATCATGGCTTATCAT
B6: S4 (dsDNA)
DNA 1: TGGTGCCGACATTTTTTTTC
DNA 2: GAAAAAAAATGTCGGCACCA
B7: S5 (dsDNA)
DNA 1: GCTTTCTTCCATCTTGAAAA
DNA 2: TTTTCAAGATGGAAGAAAGC
B8: CDC6 probe (dsDNA)
DNA 1: CGCTCCCCGGCCATCTTGGCGGCTGGT
DNA 2: ACCAGCCGCCAAGATGGCCGGGGAGCG
B9: S2 (dsDNA)
DNA 1: GGGCACAGACATTTTAATCA
DNA 2: TGATTAAAATGTCTGTGCCC

For the first data set, the target named is T1, His6-YY1 (UniProt P25490 1-414). The data set can be described thus: competition.
T1 sequence (P25490 whole entry): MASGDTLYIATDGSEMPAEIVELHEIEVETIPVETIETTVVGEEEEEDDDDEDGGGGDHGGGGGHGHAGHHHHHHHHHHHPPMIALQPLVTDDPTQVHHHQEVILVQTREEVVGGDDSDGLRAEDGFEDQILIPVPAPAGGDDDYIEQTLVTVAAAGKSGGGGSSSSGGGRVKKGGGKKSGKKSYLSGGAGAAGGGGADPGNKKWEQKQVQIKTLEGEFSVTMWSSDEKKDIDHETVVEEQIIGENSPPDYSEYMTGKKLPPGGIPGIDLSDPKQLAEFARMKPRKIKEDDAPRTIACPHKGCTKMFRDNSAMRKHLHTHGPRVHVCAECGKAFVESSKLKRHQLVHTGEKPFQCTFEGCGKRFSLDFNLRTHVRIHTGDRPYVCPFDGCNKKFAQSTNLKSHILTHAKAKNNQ
In the case of B1, the binding result is “no binding”.

Take B2: the binding result was “no binding”.

Turning to B3, the binding result was “no binding”.

As for B4, the binding result is “no binding”.

For the molecule B5, the binding result was “no binding”.

Take B6: the binding result is “binds”.

Regarding B7, the binding result is given as “binds”.

In the next data set the target is T1, His6-YY1. The data set can be described thus: EMSA. On the technique in general: A gel shift assay detects complexes by their altered migration in electrophoresis.
In the case of B8, the binding result was “binds”.

Take B9: the binding result was “binds”.
